Measurements as given in the supplement of paper PMC12042874.
± gives the uncertainty stated by the source.

Assay: amyloid nucleation score (Sup35N fusion, yeast selection) (log enrichment); library NNK3; higher = more nucleation; inactive = no reads after selection
In short: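 Peptides of 20 random codons, each fused to Sup35N, were expressed in psi-negative yeast. Cells were induced with 100 μM copper sulfate for 24 hours and grown 7 days at 30°C on medium lacking adenine and uracil, and plasmid inserts before and after selection were Illumina-sequenced. Nucleation scores are DiMSum log enrichments of output over input reads, centred on the mode score of non-aggregating sequences, and sequences under 100 input reads were excluded.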

Substance	amyloid nucleation score
RLYQFCFDENSIQLFIYP	2.35 ± 0.069
NSIAYMVWILALDCCNWGSQ	2.85 ± 0.07
TVNPMIVDPCNW	inactive
NINYSPFISAQVGLIMAPLN	inactive
GYVGLHTFSWEDLENRMDKH	inactive
YVFGKLSAFFFVRFNLQGLL	inactive
NPRHGYLPTIIGLDHSIHDL	inactive
ILSLAGSKWCWEKYRMGS	inactive
VFVFLPSWDISYDDPRGWSV	0.241 ± 0.19
CFVFWKSRQIYWMMMSRCVV	inactive
RKVGRLIPFHFCSN	inactive
ENERGKKMSLGYGLELAGTG	inactive
DSISISY	inactive
YDSLFCLSSHLGWCNRALPE	0.977 ± 0.13
MNLYVSSLIGISARMWDWFS	0.289 ± 0.25
PHTSMDALEMSD	inactive
GNMCDRTYLRMMLFHCRMPS	inactive
VTHGSVCFTTIYRTIWRFNR	inactive
FVGNGWSNFSL	inactive
GIAIFTMDCGV	inactive
SEQFSPCLVGQLRMDYSWI	inactive

Substance	amyloid nucleation score
NMQVHFIMCARSRLQGNHVS	inactive
SWNRGNLTM	inactive
WYAKWKVN	inactive
IPVCAWRWSG	inactive
TVCVWSVKVMP	-0.492 ± 0.66
FQNHVSASKVVWHRFNRRKD	inactive
LHESRVAGSNQLSRRDHERW	inactive
LTKCPCRLLCRLRSRARRMG	-0.328 ± 0.98
IVCCGSGSEEVGKLSGRIKN	inactive
STVYSRHIKTDLTNCCKFFY	-0.657 ± 0.98
VGRYPSLVSLNDTCNDVTRI	inactive
IILFINATGRIRSWCDEYGL	0.681 ± 0.27
YGAFWGYSAGAVKLNENFSV	inactive
QGLPVSVSFVGEIYLLLF	2.32 ± 0.053
VVIIK	inactive
GGKLKRCVYG	inactive
RLTGEMRRCVVHGKRSHRVF	inactive
RVITCWSQQCWHDRCLVCGK	inactive
PYLAGWRSLIPFNTSLCSGC	inactive
YCAGWFFMFSV	0.586 ± 0.2
SPSGSIVAVTPLIWR	inactive

Substance	amyloid nucleation score
DLLTFYFEPSASHSLLRPSG	inactive
YRWGISLIEMEQGGVVF	inactive
HCVNRRKQYVRIRTYARLPC	inactive
MPFGYICWIGVCFSHD	1.96 ± 0.081
ACTFITRMYCGWHSS	inactive
AVSSVLIHALYLVGMLPPSN	1.83 ± 0.092
RLRLGAAGRQGSEVVYNWSM	1.23 ± 0.12
SFNSRIIKRDDCFMDLIFWT	1.07 ± 0.12
FSITVFFVNIAATSKPYLDK	inactive
VYRNVHMFSRWQDFNPLGAR	inactive
SHLPCLFCYV	inactive
SSSMCYRCDLSMFLGSGRSG	inactive
FNFNILTIWIDLLAQLGMT	1.85 ± 0.1
IALLHQKHIG	inactive
WQWVM	inactive
RWNLDWSSLSAGHGKYSQEY	inactive
FCRLWVRVSSDTFYYSFSGN	0.537 ± 0.47
NENYVIAGC	inactive
RMAEVFLLIDCNFFYFDRYM	2.02 ± 0.092
SRLIIVPCCLL	0.478 ± 0.28
KIMFLMGSASMDSTGTC	0.863 ± 0.12

Substance	amyloid nucleation score
RRSLHCIDCSRFPLIFHCTV	inactive
GVSRLETGNFAASPMMHYKG	inactive
NCTVYLGTFCCSQGFAGLPP	3.07 ± 0.053
TEYFSRCRF	0.36 ± 0.49
FGEFKDCQGFSKF	inactive
DMGRCCSRKLRRRTPYVKGR	inactive
YVELSTYCSRWLVLIVDYLE	inactive
SVSLCFYFGIDYRILLMPEN	0.088 ± 0.73
TMAYGAPLPHSTSYYITIMS	inactive
YYIIWRFQGIVLKYGTALTF	inactive
VPKFVMDMIL	inactive
PNGREWIMKYVGDAGYRVLS	0.515 ± 0.36
TLCLQKHPSFGDYIFG	inactive
RFYRCNYYRM	2.17 ± 0.084
IQGYLANDVPMRNWPG	inactive
QSFIRSFIVYVKDALGAHHG	inactive
FWEYVRKLIEYEYLGSR	inactive
VWGIRFLLVWNRGHAGYSLN	inactive
